Experimental data: PMC7708082

Molecular target: translesion synthesis (TLS) polymerase ι (human (endogenous in K562)) (UniProt Q9UNA4)
Test: proximity ligation

Chain of UniProt Q9UNA4 (Q9UNA4 whole entry): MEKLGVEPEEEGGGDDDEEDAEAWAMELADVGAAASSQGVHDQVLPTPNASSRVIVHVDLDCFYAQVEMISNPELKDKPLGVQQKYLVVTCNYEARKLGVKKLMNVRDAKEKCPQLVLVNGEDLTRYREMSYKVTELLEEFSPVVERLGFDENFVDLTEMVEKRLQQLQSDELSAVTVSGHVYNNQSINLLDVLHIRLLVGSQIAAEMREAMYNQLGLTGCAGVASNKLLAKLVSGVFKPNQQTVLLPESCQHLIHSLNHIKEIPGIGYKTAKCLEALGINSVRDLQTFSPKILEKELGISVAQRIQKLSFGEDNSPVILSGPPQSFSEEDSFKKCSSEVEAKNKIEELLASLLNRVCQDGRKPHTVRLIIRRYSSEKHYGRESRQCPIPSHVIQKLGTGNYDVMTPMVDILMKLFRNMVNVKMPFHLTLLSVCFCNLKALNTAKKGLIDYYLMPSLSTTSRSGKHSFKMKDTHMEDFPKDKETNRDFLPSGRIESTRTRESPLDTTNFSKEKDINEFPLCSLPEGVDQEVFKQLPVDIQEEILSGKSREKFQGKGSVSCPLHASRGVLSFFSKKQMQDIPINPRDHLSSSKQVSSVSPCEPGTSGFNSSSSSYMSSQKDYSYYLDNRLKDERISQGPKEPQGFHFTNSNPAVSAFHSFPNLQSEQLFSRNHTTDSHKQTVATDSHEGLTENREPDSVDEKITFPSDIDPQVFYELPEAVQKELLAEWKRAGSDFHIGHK

Substance “p53(22Q/23S) (from UniProt P04637 1-393) (natural protein)” has a reduction in PLA-foci numbers against p53(WT) of 64%.
